Target: Cry1Da receptor protein(s) / binding site in Spodoptera frugiperda (fall armyworm) brush border membrane vesicles (Spodoptera frugiperda)
Test: homologous competition: displacement of 0.5 nM 125I-Cry1Da core toxin from 150 ug/mL S. frugiperda BBMV

Substance: Cry1Da core toxin protein (non-radiolabeled) (from UniProt P19415 28-594)
- IC50: 5 nM

From patent US20120331589A1
